Experimental data published in US20150258192A1, “COMPOSITIONS AND METHODS FOR PREVENTING OR TREATING CHRONIC LUNG ALLOGRAFT DYSFUNCTION (CLAD) AND IDIOPATHIC PULMONARY FIBROSIS (IPF)” (priority 2014, published 2015).
No end group written: not given here.

Key:
Experiment in all cases: Kinase Profiling Assay
Format in all cases: biochemical
Conditions in all cases: peptide 100 μM
TSSK2(h) = target: T1, TSSK2(h) (Homo sapiens, UniProt Q96PF2)
T1 sequence (Q96PF2 1-358): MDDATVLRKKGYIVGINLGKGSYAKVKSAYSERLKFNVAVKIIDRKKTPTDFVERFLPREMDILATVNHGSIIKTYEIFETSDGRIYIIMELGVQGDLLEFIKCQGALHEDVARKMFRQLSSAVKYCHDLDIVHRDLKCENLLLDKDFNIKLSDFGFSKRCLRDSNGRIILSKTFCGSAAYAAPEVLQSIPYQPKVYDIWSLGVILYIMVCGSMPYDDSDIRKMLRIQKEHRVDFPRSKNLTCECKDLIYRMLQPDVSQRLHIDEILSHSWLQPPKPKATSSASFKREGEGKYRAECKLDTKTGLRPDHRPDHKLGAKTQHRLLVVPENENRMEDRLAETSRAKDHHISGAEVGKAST
Summary of the method: (§1)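 Kinase inhibition by MK2 inhibitory peptides was profiled radiometrically, with substrate phosphorylation from labeled ATP read by scintillation after capture on a charged filter. Values are relative to 100% activity and measured in duplicate.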

PKCβI(h) = PKCβI(h) (Homo sapiens, UniProt P05771)
Summary of the method: as §1

ZAP-70(h) = target: T2, ZAP-70(h) (Homo sapiens, UniProt P43403)
T2 sequence (P43403 1-619): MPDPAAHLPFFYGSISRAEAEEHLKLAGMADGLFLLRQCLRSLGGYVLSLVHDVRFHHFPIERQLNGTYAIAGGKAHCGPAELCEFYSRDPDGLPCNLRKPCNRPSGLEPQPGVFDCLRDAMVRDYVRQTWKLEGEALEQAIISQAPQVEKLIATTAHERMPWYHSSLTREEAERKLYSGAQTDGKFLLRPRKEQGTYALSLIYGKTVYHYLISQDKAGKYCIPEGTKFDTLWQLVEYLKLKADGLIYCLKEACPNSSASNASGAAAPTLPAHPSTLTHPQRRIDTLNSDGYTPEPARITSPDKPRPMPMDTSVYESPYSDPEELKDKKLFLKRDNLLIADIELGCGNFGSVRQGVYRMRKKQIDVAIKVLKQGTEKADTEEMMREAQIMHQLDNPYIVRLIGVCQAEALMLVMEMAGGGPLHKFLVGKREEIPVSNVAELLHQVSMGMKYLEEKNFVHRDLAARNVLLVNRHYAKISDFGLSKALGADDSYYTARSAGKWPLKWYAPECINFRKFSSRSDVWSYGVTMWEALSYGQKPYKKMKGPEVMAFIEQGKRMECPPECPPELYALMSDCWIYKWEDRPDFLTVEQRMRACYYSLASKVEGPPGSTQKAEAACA
Summary of the method: as §1

SAPK2b(h) = target: T3, SAPK2b(h) (Homo sapiens, UniProt Q15759)
T3 construct: purchased Millipore
Summary of the method: as §1

FGFR2(h) = FGFR2(h) (Homo sapiens, UniProt P21802)
Summary of the method: as §1

IRAK1(h) = target: T4, IRAK1(h) (Homo sapiens, UniProt P51617)
T4 construct: purchased Millipore
Summary of the method: as §1

PKBα(h) = PKBα(h) (Homo sapiens, UniProt P31749)
Summary of the method: as §1

ARK5(h) = target: T5, ARK5(h) (Homo sapiens, UniProt O60285)
T5 sequence (O60285 1-661): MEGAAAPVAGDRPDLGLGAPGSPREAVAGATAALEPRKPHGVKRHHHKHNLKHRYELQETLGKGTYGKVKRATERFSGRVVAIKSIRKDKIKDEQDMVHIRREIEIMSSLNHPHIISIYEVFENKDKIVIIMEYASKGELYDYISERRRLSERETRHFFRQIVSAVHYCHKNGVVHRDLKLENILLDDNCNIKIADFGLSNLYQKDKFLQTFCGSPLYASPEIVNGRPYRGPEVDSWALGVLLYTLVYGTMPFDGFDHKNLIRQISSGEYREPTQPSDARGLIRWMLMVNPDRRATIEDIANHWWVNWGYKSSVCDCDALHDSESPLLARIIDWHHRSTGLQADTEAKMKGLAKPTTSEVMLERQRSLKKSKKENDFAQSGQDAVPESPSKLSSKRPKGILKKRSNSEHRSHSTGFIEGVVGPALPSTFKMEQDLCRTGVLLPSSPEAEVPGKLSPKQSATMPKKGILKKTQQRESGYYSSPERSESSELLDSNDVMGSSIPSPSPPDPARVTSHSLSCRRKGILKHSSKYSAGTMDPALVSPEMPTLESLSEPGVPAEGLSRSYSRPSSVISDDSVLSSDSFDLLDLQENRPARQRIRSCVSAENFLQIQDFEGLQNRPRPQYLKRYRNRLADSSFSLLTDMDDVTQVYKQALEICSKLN
Summary of the method: as §1

IR(h), activated = target: T6, IR(h), activated (Homo sapiens, UniProt P06213)
T6 construct: purchased Millipore
Summary of the method: as §1

Met(Y1248C)(h) = target: T7, Met(Y1248C)(h) (Homo sapiens, UniProt P08581, Y1230C)
T7 construct: purchased Millipore
Summary of the method: as §1

MST1(h) = target: T8, MST1(h) (Homo sapiens, UniProt Q13043)
T8 construct: purchased Millipore
T8 sequence (Q13043 1-487): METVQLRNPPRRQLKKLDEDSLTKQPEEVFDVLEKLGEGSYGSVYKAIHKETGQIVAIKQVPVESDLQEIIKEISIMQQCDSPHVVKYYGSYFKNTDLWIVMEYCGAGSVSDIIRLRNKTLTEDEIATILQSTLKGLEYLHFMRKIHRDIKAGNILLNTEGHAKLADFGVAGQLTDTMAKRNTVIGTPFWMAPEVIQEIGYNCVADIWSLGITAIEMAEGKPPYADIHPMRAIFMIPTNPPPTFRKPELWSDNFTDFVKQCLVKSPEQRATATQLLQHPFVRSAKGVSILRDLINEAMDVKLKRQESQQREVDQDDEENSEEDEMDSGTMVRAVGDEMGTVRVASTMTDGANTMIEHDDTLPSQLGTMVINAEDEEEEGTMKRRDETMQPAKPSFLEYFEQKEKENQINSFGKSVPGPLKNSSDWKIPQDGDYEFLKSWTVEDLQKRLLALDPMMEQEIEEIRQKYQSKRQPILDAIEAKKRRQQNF
Summary of the method: as §1

PKBα(h), sequence (P31749 whole entry): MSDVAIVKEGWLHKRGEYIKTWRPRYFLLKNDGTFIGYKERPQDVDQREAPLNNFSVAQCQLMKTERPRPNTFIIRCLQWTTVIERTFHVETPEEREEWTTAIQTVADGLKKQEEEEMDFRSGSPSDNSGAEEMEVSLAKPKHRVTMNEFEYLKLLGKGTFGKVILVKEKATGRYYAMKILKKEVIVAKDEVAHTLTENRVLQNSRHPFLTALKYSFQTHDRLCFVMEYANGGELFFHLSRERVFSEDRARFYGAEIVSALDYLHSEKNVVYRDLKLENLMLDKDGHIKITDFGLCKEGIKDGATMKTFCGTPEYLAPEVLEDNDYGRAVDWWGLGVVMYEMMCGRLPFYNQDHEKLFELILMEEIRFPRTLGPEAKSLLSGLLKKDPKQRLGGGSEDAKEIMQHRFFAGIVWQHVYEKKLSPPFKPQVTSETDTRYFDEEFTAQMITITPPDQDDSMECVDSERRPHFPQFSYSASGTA
T3 sequence (Q15759 whole entry): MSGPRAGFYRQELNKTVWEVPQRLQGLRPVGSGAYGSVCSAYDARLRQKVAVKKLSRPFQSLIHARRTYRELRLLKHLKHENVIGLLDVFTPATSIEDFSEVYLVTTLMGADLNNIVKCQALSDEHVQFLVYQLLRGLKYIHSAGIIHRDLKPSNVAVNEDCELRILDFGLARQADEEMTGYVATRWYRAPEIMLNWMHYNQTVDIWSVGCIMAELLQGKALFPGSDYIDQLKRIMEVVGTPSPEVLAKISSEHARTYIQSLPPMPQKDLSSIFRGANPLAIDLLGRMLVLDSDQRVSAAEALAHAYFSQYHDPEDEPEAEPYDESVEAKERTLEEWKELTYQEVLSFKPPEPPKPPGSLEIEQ
T4 sequence (P51617 whole entry): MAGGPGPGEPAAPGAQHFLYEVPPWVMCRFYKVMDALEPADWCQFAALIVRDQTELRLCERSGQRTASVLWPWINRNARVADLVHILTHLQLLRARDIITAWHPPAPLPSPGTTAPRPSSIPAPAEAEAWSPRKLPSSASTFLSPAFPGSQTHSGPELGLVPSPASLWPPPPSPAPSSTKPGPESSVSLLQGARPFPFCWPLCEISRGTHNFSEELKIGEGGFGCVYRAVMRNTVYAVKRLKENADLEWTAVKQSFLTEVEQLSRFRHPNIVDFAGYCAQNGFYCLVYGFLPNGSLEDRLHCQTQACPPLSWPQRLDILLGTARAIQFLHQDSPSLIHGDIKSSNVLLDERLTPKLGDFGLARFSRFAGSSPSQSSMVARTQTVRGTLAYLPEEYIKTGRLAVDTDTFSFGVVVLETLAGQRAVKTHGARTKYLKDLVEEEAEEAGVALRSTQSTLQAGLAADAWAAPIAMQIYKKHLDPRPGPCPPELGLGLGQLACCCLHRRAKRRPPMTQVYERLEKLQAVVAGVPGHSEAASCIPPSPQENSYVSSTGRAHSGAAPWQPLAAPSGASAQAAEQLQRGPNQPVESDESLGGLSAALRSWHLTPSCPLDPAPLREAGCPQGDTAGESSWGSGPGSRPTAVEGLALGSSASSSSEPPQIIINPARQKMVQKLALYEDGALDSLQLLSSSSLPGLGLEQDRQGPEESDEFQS
T6 sequence (P06213 1005-1310 limits assumed): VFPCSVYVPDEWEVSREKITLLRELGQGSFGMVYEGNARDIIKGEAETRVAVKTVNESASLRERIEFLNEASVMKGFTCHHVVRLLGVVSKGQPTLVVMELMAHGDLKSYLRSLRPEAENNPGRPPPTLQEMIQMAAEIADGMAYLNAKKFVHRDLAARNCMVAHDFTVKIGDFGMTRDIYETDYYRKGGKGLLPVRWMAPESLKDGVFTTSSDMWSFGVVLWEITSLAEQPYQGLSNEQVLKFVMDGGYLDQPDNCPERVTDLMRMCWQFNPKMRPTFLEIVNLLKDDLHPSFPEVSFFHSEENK
PKCβI(h), sequence (P05771 whole entry): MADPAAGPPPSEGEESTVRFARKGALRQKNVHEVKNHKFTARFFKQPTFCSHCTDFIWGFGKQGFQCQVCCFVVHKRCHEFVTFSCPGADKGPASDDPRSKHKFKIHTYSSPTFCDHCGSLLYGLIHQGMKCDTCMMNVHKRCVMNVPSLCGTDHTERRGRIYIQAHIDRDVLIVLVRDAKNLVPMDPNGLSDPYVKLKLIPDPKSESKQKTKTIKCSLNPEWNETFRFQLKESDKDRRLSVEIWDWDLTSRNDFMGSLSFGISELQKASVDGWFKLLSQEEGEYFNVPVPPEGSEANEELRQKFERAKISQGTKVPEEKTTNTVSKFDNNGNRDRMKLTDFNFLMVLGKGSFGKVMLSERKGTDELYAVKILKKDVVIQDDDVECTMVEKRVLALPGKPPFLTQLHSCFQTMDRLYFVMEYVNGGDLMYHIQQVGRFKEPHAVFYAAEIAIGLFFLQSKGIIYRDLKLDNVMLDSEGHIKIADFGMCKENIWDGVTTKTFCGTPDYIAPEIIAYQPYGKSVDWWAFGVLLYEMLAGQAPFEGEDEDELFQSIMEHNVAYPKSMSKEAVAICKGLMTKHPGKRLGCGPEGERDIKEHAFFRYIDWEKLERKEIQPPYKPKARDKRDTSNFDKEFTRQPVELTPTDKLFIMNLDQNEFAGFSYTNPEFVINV

Row | Sequence | % activity (TSSK2(h)) | % activity (PKCβI(h)) | % activity (ZAP-70(h)) | % activity (SAPK2b(h)) | % activity (FGFR2(h)) | % activity (IRAK1(h)) | % activity (PKBα(h)) | % activity (ARK5(h)) | % activity (IR(h), activated) | % activity (Met(Y1248C)(h)) | % activity (MST1(h))
1 | FAKLAARLYRKALARQLGVAA [MMI-0300] | 98% | 78% | 75% | 81% | 14% | 95% | 57% | 78% | 79% | 84% | 14%
2 | HRRIKAWLKKIKALARQLGVAA (Mammal) [MMI-0500] | 92% | 1% | 1% | 42% | 12% | 5% | 30% | 20% | 90% | 73% | 3%
3 | KAFAKLAARLYRKALARQLGVAA [MMI-0400] | 94% | 78% | 33% | 82% | 18% | 93% | 67% | 69% | 59% | 36% | 6%
4 | YARAAARQARAKALARQLGVAA [MMI-0100] | – | – | 79% | – | – | – | – | 108% | 127% | 77% | –
5 | YARAAARQARAKALNRQLGVA (Mammal) [MMI-0200] | 91% | 98% | 58% | 95% | 73% | 101% | 110% | 93% | – | 141% | 72%
